The target in one data set is IFP1.2. The data set is described as follows: multiple angle light scattering at 785 nm; self-association (homodimer).
Data set [1] deals with the molecule itself. The data set is described as follows: size exclusion chromatography; self-association (homodimer). A general note: Size exclusion chromatography separates by hydrodynamic size, large species first.

IFP1.2: in the data set with IFP1.2, the apparent molecular weight worked out at 80 kDa.

B1: IFP1.0 (DrCBD, 321 amino acids, with the D207H mutation) (other)
chain: MSRDPLPFFPPLYLGGPEITTENCEREPIHIPGSIQPHGALLTADGHSGEVLQMSLNAATFLGQEPTVLRGQTLAALLPEQWPALQAALPPGCPDALQYRATLDWPAAGHLSLTVHRVGELLILEFEPTEAWDSTGPHALRNAMFALESAPNLRALAEVATQTVRELTGFDRVMLYKFAPDATGEVIAEARREGLHAFLGHRFPASHIPAQARALYTRHLLRLTADTRAAAVPLDPVLNPQTNAPTPLGGAVLRATSPMHMQYLRNMGVGSSLSVSVVVGGQLWGLIACHHQTPYVLPPDLRTTLEYLGRLLSLQVQVKEA
modifications: biliverdin chromophore covalently incorporated (residue not stated)
notes: Engineered bacteriophytochrome fragment, reported as a homodimer; also called DrCBD/D207H; drCBD/D207H
Take B1: the binding result in data set [1] was “binds”.

The values above are taken from patent US20110177003A1 (CENTRE NATIONAL DE LA RECHERCHE SCIENTIFIQUE, published 2011).
